Measured values published in patent US20190225689A1 (Janssen / Centocor, published 2019).

Biological target: T1, human programmed cell death protein 1, PD-1 (human, UniProt Q15116 25-288)
T1 construct: In the assay it was the endogenous PD-1 on circulating CD3+ T cells of treated patients; also called CD279; PDCD1
Assay: PD-1 receptor occupancy by flow cytometry on circulating CD3+ T cells of dosed patients

T1 sequence (Q15116 25-288 limits assumed): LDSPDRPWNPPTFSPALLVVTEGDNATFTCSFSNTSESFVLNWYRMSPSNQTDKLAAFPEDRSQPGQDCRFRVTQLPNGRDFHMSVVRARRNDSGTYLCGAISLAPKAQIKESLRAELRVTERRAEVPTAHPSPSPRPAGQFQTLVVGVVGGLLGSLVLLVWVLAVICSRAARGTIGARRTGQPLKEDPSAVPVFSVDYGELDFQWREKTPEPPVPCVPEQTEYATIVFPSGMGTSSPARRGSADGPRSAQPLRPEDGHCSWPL

B1: JNJ-63723283 (cetrelimab) (antibody, human IgG4 S228P, kappa, V domains shown)
VH: QVQLVQSGAEVKKPGSSVKVSCKASGGTFSSYAISWVRQAPGQGLEWMGGIIPIFDTANYAQKFQGRVTITADESTSTAYMELSSLRSEDTAVYYCARPGLAAAYDTGSLDYWGQGTLVTVSS
VL: EIVLTQSPATLSLSPGERATLSCRASQSVRSYLAWYQQKPGQAPRLLIYDASNRATGIPARFSGSGSGTDFTLTISSLEPEDFAVYYCQQRNYWPLTFGQGTKVEIKR
notes: IgG4/kappa antibody; also called study drug
B1: binds.
